Experimental data reported in article PMC6539110, “A Novel G-Quadruplex Binding Protein in Yeast—Slx9”.
Residue numbers refer to the chain shown, from its start.

Key:
Slx9 (6xHis-Slx9) [1] = target: T1, Slx9 (6xHis-Slx9) (Saccharomyces cerevisiae, UniProt P53251 1-210); assay: filter binding; Filter binding: 50 mM Tris/HCl pH 8.0, 125 mM KCl, 5 mM DTT, 10% glycerol, 10 nM DNA, 0-65 uM Slx9, on ice 30 min; MST: 25 nM Cy5-DNA, NaCl (buffer partly given), 0.5% BSA, 0.05% Tween-20, 24 C; details: protein: recombinant, tags: 6xHis (pET28a EcoRI/NotI; about 30 kDa)
T1 sequence: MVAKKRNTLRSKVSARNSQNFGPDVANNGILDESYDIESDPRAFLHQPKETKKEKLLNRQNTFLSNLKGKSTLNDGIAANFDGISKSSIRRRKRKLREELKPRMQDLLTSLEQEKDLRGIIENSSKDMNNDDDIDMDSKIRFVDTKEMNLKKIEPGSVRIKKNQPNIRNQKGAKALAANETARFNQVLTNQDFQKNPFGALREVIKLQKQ

Slx9 (6xHis-Slx9) [2] = target: T1, Slx9 (6xHis-Slx9); assay: filter binding; listed as G4TP2; Filter binding: 50 mM Tris/HCl pH 8.0, 125 mM KCl, 5 mM DTT, 10% glycerol, 10 nM DNA, 0-65 uM Slx9, on ice 30 min; MST: 25 nM Cy5-DNA, NaCl (buffer partly given), 0.5% BSA, 0.05% Tween-20, 24 C; details: protein: recombinant; tags: 6xHis (pET28a EcoRI/NotI; about 30 kDa); label: 5' 32P; folded G4

Work on AAAAAAAAAAGCGTACGGTGCGTAATAACGCAAGCTATCGCG (ssDNA) [G4mut (mut-G4IX)] yielded a Kd (Slx9 (6xHis-Slx9) [1]; 5' Cy5 (MST), cannot fold G4) of 15.7 ± 3.57 µM.

AAAAAAAAAAGGGGGAGCTGGGGTAGATGGGAATGTGAGGG (structured_DNA) [G4TP (G4TP1/G4TP2 in Fig. 1C)] was tested, and the Kd (Slx9 (6xHis-Slx9) [2]) was 0.53 ± 0.1 µM.

With AAAAAAAAAAGGGTACGGTGGGTAATAAGGGAAGGTATCGGG (structured_DNA) [G4IX] the Kd (Slx9 (6xHis-Slx9) [1]; 5' Cy5 (MST), folded G4) was 0.55 ± 0.08 µM.

B1: dsDNA (dsDNA)
DNA 1: GACGCTGCCGAATTCTGGCTTGCTAGGACATCTTTGCCCACGTTGACCCG
DNA 2: CGGGTCAACGTGGGCAAAGATGTCCTAGCAAGCCAGAATTCGGCAGCGTC
B1 showed a Kd (Slx9 (6xHis-Slx9) [1]; label: 5' 32P, blunt) of 5.27 ± 1.18 µM.

B2: bubble (dsDNA)
DNA 1: CGGGTCAACGTGGGCAAAGCCAATGCGATCGGCCAGAATTCGGCAGCGTC
DNA 2: B1 DNA 1 with A25C
With B2 the Kd (Slx9 (6xHis-Slx9) [1]; label: 5' 32P, blunt, central mismatched bubble) was 1.73 ± 0.42 µM.

B3: 4-fork (4-way junction) (dsDNA)
DNA 1: B1 DNA 1
DNA 2: CGGGTCAACGTGGGCAAAGATGTCCTAGCAATGTAATCGTCTATGACGTC
DNA 3: GACGTCATAGACGATTACATTGCTAGGACATGCTGTCTAGAGACTATCGC
DNA 4: GCGATAGTCTCTAGACAGCATGTCCTAGCAAGCCAGAATTCGGCAGCGTC
B3 showed a Kd (Slx9 (6xHis-Slx9) [1]; label: 5' 32P, four-way junction 1:2 2:3 3:4 4:1) of 3.72 ± 0.62 µM.

B4: fork (dsDNA)
DNA 1: B1 DNA 1
DNA 2: B3 DNA 2
Binder B4 has a Kd (Slx9 (6xHis-Slx9) [1]; label: 5' 32P, fork 1:2, 5' arm of strand 1 and 3' arm of strand 2 unpaired (about 19 nt)) of 4.21 ± 0.64 µM.
